Laboratory results: patent US20240010722A1 (published 2024)
Substitutions are numbered along the chain they refer to.

Columns and labels:
[1] = target: T1, human MAdCAM (human, UniProt Q13477 19-317, limits assumed); assay: BLI (Octet), binder on anti-human Fc tips
T1 construct: also called huMAdCAM; human MAdCAM-1
T1 sequence (looked up): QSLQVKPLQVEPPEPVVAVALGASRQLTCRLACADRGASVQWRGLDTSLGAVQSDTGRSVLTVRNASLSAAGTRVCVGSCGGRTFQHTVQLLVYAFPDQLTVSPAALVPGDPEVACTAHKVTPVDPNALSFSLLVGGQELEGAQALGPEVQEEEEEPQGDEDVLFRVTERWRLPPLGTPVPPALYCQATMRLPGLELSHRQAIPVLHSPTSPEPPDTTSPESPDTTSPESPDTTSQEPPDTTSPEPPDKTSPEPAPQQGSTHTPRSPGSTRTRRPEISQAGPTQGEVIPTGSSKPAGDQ

[2] = target: T1, human MAdCAM; assay: BLI (Octet), binder on AHC tips
Procedure, shortened: (§1)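 After 20 minutes of equilibration in assay buffer, anti-human IgG Fc biosensors on an Octet96 RED were loaded for 240 s with test article at 10 μg/mL in assay buffer. Association with MAdCAM-1, a seven-point serial dilution from 200 nM to 3.13 nM, ran for 120 s, and dissociation in assay buffer ran for another 120 s. A global one-to-one fit in the Octet data analysis software gave the kinetic rates and dissociation constant.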

[3] = target: T2, mouse MAdCAM (mouse, UniProt Q61826 22-365, limits assumed); assay: BLI (Octet), binder on AHC tips
T2 construct: also called mouse MAdCAM-1; muMAdCAM
T2 sequence (looked up): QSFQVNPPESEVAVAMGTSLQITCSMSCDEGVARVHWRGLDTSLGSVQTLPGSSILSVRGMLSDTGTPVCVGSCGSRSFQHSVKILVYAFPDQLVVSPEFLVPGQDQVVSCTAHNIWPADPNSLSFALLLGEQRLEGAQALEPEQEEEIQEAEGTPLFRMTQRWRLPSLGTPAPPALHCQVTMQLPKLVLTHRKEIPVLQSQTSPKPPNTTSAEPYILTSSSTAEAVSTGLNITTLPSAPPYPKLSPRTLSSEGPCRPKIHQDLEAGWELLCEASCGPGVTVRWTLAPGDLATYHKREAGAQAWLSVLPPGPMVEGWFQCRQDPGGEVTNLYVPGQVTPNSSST
Procedure, shortened: as §1

B1: MIAB141 (antibody, V domains shown)
VH: EVQLLESGGGLVQPGGSLRLSCAASGFTFSDFWMHWVRQAPGKGLEWISYISGDSGYTNYADSVKGRFTISRDNSKNTLYLQMNSLRAEDTAVYYCARDRPYYYYMDVWGKGTTVTVSS
VL: DIQMTQSPSSLSASVGDRVTITCRASQSISSYLNWYQQKPGKAPKLLIYAASSLQSGVPSRFSGSGSGTDFTLTISSLQPEDFATYYCQQYKSYPVTFGQGTKVEIK
notes: tested with human Fc
[1]
  binding result: no binding (tested: 150 nM)

B2: MIAB174 (antibody, V domains shown)
VH: B1 VH with F32Y
VL: B1 VL with I29V, S31R, Y32S, N34A
notes: tested with human Fc; also called MIAB174-001
[1]
  Kd: 21.8 nM
  koff: 0.00969 s⁻¹
  kon: 445000 M⁻¹ s⁻¹

B3: MIAB175 (antibody, V domains shown)
VH: B1 VH with D31S, F32Y
VL: B1 VL with I29V, S31R, Y32S, N34A
notes: tested with human Fc; also called MIAB175-001
[1]
  Kd: 22.6 nM
  koff: 0.0106 s⁻¹
  kon: 471000 M⁻¹ s⁻¹

B4: MIAB177 (antibody, V domains shown)
VH: B1 VH with I48V, Y50A, D54S, S55G, Y57S, N59Y
VL: B1 VL with I29V, S31R, Y32S, N34A
notes: tested with human Fc; also called MIAB177-001
[1]
  Kd: 218 nM
  koff: 0.0851 s⁻¹
  kon: 391000 M⁻¹ s⁻¹

B5: MIAB178 (antibody, V domains shown)
VH: B1 VH with D31S, F32Y, Y50A, D54S, Y57S, N59Y
VL: B1 VL with I29V, S31R, Y32S, N34A
notes: tested with human Fc; also called MIAB178-001
[1]
  Kd: 519 nM
  koff: 0.22 s⁻¹
  kon: 372000 M⁻¹ s⁻¹

B6: MIAB182 (antibody, V domains shown)
VH: B1 VH with D31S, F32Y, I48V, Y50A, D54S, S55G, Y57S, N59Y
VL: B1 VL with S31R, Y32S, N34A
notes: tested with human Fc; also called MIAB182-001
[1]
  Kd: 119 nM
  fold reduction of affinity against PRNT1: 10 fold
  koff: 0.0267 s⁻¹
  kon: 226000 M⁻¹ s⁻¹

B7: MIAB183 (antibody, V domains shown)
VH: B1 VH with D31S, F32Y, I48V, Y50A, D54S, S55G, Y57S, N59Y
VL: B1 VL with I29V, Y32S, N34A
notes: tested with human Fc; also called MIAB183-001
[1]
  Kd: 362 nM
  fold reduction of affinity against PRNT1: 20 fold

B8: MIAB184 (antibody, V domains shown)
VH: B1 VH with D31S, F32Y, I48V, Y50A, D54S, S55G, Y57S, N59Y
VL: B1 VL with Y32S, N34A
notes: tested with human Fc; also called MIAB184-001
[1]
  Kd: 563 nM
  fold reduction of affinity against PRNT1: 40 fold
  koff: 0.0818 s⁻¹
  kon: 145000 M⁻¹ s⁻¹

B9: PMAB19 (bispecific antibody, human IgG1, kappa)
heavy: EVQLLESGGGLVQPGGSLRLSCAASGFTFSNSDMSWVRQAPGKGLEWVSGITISGGSTYYADSVKGRFTISRDNSKNTLYLQMNSLRAEDTAVYYCARGRGGSGWLDYWGQGTLVTVSSASTKGPSVFPLAPSSKSTSGGTAALGCLVKDYFPEPVTVSWNSGALTSGVHTFPAVLQSSGLYSLSSVVTVPSSSLGTQTYICNVNHKPSNTKVDKKVEPKSCDKTHTCPPCPAPEAAGAPSVFLFPPKPKDTLMISRTPEVTCVVVDVSHEDPEVKFNWYVDGVEVHNAKTKPREEQYNSTYRVVSVLTVLHQDWLNGKEYKCKVSNKALPAPIEKTISKAKGQPREPQVYTLPPSREEMTKNQVSLTCLVKGFYPSDIAVEWESNGQPENNYKTTPPVLDSDGSFFLYSKLTVDKSRWQQGNVFSCSVMHEALHNHYTQKSLSLSPGGGGGSGGGGSGGGGSEVQLLESGGGLVQPGGSLRLSCAASGFTFSSFWMHWVRQAPGKGLEWISYISGDSGYTNYADSVKGRFTISRDNSKNTLYLQMNSLRAEDTAVYYCARDRPYYYYMDVWGKGTTVTVSSGGGGSGGGGSGGGGSGGGGSDIQMTQSPSSLSASVGDRVTITCRASQSVSRSLAWYQQKPGKAPKLLIYAASSLQSGVPSRFSGSGSGTDFTLTISSLQPEDFATYYCQQYKSYPVTFGQGTKVEIK
light: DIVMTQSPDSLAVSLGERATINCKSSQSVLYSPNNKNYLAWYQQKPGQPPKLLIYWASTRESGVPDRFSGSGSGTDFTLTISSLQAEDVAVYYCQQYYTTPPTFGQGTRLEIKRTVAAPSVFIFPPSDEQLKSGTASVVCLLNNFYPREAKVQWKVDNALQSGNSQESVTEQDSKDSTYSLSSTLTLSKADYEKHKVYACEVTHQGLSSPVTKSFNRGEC
[2]
  Kd: 31.2 nM
  koff: 0.0168 s⁻¹
  kon: 540000 M⁻¹ s⁻¹
[3]
  Kd: 112 nM
  koff: 0.0177 s⁻¹
  kon: 158000 M⁻¹ s⁻¹
  response: 0.149

B10: PMAB20 (bispecific antibody, human IgG1, kappa)
heavy: B9 heavy with S494D, F495Y
light: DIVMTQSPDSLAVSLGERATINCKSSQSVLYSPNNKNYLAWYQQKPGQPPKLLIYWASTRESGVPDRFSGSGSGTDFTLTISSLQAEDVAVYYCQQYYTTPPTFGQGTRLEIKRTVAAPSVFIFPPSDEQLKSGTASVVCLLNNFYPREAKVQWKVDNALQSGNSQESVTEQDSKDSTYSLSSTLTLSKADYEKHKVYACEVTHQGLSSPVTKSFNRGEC
[2]
  Kd: 90.5 nM
  koff: 0.0372 s⁻¹
  kon: 411000 M⁻¹ s⁻¹
[3]
  Kd: 118 nM
  koff: 0.0193 s⁻¹
  kon: 163000 M⁻¹ s⁻¹
  response: 0.153

B11: PMAB23 (bispecific antibody, human IgG1, kappa)
heavy: B9 heavy with S494D, I511V
light: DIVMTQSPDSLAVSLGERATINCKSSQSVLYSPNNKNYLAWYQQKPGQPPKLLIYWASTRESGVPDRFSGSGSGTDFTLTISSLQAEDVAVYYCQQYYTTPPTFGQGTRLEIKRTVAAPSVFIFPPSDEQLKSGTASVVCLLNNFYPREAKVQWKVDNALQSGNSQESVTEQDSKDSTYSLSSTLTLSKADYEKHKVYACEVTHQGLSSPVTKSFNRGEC
[2]
  Kd: 110 nM
  koff: 0.0389 s⁻¹
  kon: 355000 M⁻¹ s⁻¹
[3]
  Kd: 141 nM
  koff: 0.0178 s⁻¹
  kon: 126000 M⁻¹ s⁻¹
  response: 0.141

B12: PMAB24 (bispecific antibody, human IgG1, kappa)
heavy: B9 heavy with S494D, Y513A
light: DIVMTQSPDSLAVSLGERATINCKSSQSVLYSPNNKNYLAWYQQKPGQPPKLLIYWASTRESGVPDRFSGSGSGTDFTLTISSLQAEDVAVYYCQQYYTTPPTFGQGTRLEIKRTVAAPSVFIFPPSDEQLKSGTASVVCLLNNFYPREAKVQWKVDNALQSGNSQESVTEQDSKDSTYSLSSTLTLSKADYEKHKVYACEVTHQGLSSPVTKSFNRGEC
[2]
  Kd: 33.2 nM
  koff: 0.0134 s⁻¹
  kon: 404000 M⁻¹ s⁻¹
[3]
  Kd: 52.4 nM
  koff: 0.00596 s⁻¹
  kon: 114000 M⁻¹ s⁻¹
  response: 0.0549

B13: PMAB25 (bispecific antibody, human IgG1, kappa)
heavy: B9 heavy with S494D, D517S
light: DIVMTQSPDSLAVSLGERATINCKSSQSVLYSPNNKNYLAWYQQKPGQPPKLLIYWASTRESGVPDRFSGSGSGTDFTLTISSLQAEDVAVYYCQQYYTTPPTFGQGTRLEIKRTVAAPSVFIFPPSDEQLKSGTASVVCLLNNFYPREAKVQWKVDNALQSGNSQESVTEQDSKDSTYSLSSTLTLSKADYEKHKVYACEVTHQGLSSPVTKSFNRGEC
[2]
  Kd: 43.6 nM
  koff: 0.0212 s⁻¹
  kon: 486000 M⁻¹ s⁻¹
[3]
  Kd: 115 nM
  koff: 0.012 s⁻¹
  kon: 105000 M⁻¹ s⁻¹
  response: 0.133

B14: PMAB39 (bispecific antibody, human IgG1, kappa)
heavy: B9 heavy with S494D, A636N
light: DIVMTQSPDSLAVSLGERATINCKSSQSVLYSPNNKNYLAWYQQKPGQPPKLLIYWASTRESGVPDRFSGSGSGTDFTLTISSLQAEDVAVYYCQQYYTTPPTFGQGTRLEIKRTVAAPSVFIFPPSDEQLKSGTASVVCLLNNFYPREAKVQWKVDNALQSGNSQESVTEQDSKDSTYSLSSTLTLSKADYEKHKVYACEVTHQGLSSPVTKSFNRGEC
[2]
  binding result: no binding (tested: 200 nM (top of the dilution series))

B15: PMAB41 (bispecific antibody, human IgG1, kappa)
heavy: B9 heavy with S494D, K694Y
light: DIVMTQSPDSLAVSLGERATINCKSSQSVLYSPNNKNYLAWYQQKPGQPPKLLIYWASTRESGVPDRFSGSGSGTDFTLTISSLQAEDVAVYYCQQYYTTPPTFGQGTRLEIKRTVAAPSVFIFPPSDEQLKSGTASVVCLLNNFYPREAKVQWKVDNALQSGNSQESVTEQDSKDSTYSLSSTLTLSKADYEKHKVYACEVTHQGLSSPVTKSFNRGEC
[3]
  Kd: 119 nM
  koff: 0.0246 s⁻¹
  kon: 208000 M⁻¹ s⁻¹
  response: 0.189

B16: PMAB43 (bispecific antibody, human IgG1, kappa)
heavy: B9 heavy with S494D, V698R
light: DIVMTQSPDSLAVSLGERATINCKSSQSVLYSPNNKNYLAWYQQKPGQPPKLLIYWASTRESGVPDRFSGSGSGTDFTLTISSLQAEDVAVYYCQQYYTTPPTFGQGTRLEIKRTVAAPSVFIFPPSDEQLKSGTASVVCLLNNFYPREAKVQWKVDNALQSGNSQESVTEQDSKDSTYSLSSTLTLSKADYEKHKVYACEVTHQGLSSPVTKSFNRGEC
[2]
  binding result: no binding (tested: 200 nM (top of the dilution series))

B17: PMAB46 (bispecific antibody, human IgG1, kappa)
heavy: B9 heavy with S494D, Y566G
light: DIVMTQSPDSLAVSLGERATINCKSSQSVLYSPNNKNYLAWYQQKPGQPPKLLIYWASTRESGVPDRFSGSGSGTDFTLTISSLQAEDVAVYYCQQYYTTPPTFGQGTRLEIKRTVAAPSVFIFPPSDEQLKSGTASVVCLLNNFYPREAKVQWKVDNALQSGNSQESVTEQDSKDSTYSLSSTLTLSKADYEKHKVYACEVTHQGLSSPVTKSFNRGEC
[2]
  Kd: 37900 nM
  koff: 0.309 s⁻¹
  kon: 8160 M⁻¹ s⁻¹

B18: PMAB47 (bispecific antibody, human IgG1, kappa)
heavy: B9 heavy with S494D, Y566N
light: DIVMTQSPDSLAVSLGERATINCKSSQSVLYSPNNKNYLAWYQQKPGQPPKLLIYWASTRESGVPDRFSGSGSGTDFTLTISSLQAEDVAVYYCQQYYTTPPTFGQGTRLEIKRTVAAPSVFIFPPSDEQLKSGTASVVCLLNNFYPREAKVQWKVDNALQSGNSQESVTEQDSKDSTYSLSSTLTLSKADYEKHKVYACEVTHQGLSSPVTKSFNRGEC
[2]
  Kd: 219 nM
  koff: 0.072 s⁻¹
  kon: 329000 M⁻¹ s⁻¹

B19: PMAB49 (bispecific antibody, human IgG1, kappa)
heavy: B9 heavy with S494D, Y568D
light: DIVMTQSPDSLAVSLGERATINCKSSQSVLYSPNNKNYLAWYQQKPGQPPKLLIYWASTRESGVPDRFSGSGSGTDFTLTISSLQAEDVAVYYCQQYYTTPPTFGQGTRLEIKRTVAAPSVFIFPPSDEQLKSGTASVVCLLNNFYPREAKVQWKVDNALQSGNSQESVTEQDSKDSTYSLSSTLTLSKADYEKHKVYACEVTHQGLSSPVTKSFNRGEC
[2]
  Kd: 142 nM
  koff: 0.0125 s⁻¹
  kon: 87900 M⁻¹ s⁻¹

B20: PMAB51 (bispecific antibody, human IgG1, kappa)
heavy: B9 heavy with S494D, Y568K
light: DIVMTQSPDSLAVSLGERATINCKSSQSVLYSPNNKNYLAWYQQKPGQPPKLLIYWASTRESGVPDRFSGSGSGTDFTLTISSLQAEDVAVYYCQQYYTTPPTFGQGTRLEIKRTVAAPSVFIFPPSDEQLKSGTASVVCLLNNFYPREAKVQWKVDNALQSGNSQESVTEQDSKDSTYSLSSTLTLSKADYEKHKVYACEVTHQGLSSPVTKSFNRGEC
[2]
  Kd: 93.5 nM
  koff: 0.00952 s⁻¹
  kon: 115000 M⁻¹ s⁻¹
